Measurements from PMC12835413, “Allosteric zinc inhibition and interdomain regulation govern the catalytic mechanism of the E3-independent ubiquitin-conjugating enzyme hUBE2O” (The Journal of Biological Chemistry, 2025).

Target: the molecule itself
Experiment: SEC-MALS; 100 ul of 2 mg/ml purified Flag-UBE2O-TwinStrep on Superdex 200 Increase 5/150 GL; 50 mM Tris-HCl pH 7.4, 200 mM NaCl, 0.5 mM TCEP

B1: Flag-UBE2O-TwinStrep (purified recombinant Homo sapiens UBE2O) (enzyme, human, UniProt Q9C0C9 1-1292, looked up)
chain: MADPAAPTPAAPAPAQAPAPAPEAVPAPAAAPVPAPAPASDSASGPSSDSGPEAGSQRLLFSHDLVSGRYRGSVHFGLVRLIHGEDSDSEGEEEGRGSSGCSEAGGAGHEEGRASPLRRGYVRVQWYPEGVKQHVKETKLKLEDRSVVPRDVVRHMRSTDSQCGTVIDVNIDCAVKLIGTNCIIYPVNSKDLQHIWPFMYGDYIAYDCWLGKVYDLKNQIILKLSNGARCSMNTEDGAKLYDVCPHVSDSGLFFDDSYGFYPGQVLIGPAKIFSSVQWLSGVKPVLSTKSKFRVVVEEVQVVELKVTWITKSFCPGGTDSVSPPPSVITQENLGRVKRLGCFDHAQRQLGERCLYVFPAKVEPAKIAWECPEKNCAQGEGSMAKKVKRLLKKQVVRIMSCSPDTQCSRDHSMEDPDKKGESKTKSEAESASPEETPDGSASPVEMQDEGAEEPHEAGEQLPPFLLKEGRDDRLHSAEQDADDEAADDTDDTSSVTSSASSTTSSQSGSGTSRKKSIPLSIKNLKRKHKRKKNKITRDFKPGDRVAVEVVTTMTSADVMWQDGSVECNIRSNDLFPVHHLDNNEFCPGDFVVDKRVQSCPDPAVYGVVQSGDHIGRTCMVKWFKLRPSGDDVELIGEEEDVSVYDIADHPDFRFRTTDIVIRIGNTEDGAPHKEDEPSVGQVARVDVSSKVEVVWADNSKTIILPQHLYNIESEIEESDYDSVEGSTSGASSDEWEDDSDSWETDNGLVEDEHPKIEEPPIPPLEQPVAPEDKGVVISEEAATAAVQGAVAMAAPMAGLMEKAGKDGPPKSFRELKEAIKILESLKNMTVEQLLTGSPTSPTVEPEKPTREKKFLDDIKKLQENLKKTLDNVAIVEEEKMEAVPDVERKEDKPEGQSPVKAEWPSETPVLCQQCGGKPGVTFTSAKGEVFSVLEFAPSNHSFKKIEFQPPEAKKFFSTVRKEMALLATSLPEGIMVKTFEDRMDLFSALIKGPTRTPYEDGLYLFDIQLPNIYPAVPPHFCYLSQCSGRLNPNLYDNGKVCVSLLGTWIGKGTERWTSKSSLLQVLISIQGLILVNEPYYNEAGFDSDRGLQEGYENSRCYNEMALIRVVQSMTQLVRRPPEVFEQEIRQHFSTGGWRLVNRIESWLETHALLEKAQALPNGVPKASSSPEPPAVAELSDSGQQEPEDGGPAPGEASQGSDSEGGAQGLASASRDHTDQTSETAPDASVPPSVKPKKRRKSYRSFLPEKSGYPDIGFPLFPLSKGFIKSIRGVLTQFRAALLEAGMPECTEDK
notes: Homo sapiens UBE2O (ubiquitin-conjugating enzyme E2O), UniProt Q9C0C9, from plasmid pLV-Flag-hUBE2O-TS; also called hUBE2O; Flag-hUBE2O-TwinStrep; source: Expi293F cells, purified; not shown: Flag, N-terminal, kept
- stoichiometry N: 2
